Test results as given in publication doi:10.1101/2021.09.10.459853v1 (bioRxiv, 2021).
One block for each compound: values may come before it.

Assays:
[1] = cited from earlier work
[2] = Integrative optical imaging; format: physicochemical; conditions: IOI, 0.3% dilute agarose gel in PBS; 31°C; n=30 records; Mean ± S.D.; SD
[3] = tested on: hyaluronan in mouse brain cortex; experiment: HABP immunostaining after intraventricular hyaluronidase; format: in vivo; conditions: two days after hyase injection, n = 5 slices
[4] = target: SST2 receptor (hSSTR2) in SST2 CNiFER clone #5F3 (Homo sapiens, UniProt P30874); experiment: SST2 CNiFER FRET response, plate reader; format: cell-based; conditions: 1000 nM; n = 3-6
[5] = cited from earlier work; remark: listed apart in the source
[6] = tested on: SST2 CNiFERs implanted in mouse cortex; experiment: SST volume transmission in vivo, core-satellite SST2 CNiFER implants; conditions: normal mouse cortex; distance less than 130 μm

SST2 receptor (hSSTR2) in SST2 CNiFER clone #5F3, sequence (P30874 whole entry): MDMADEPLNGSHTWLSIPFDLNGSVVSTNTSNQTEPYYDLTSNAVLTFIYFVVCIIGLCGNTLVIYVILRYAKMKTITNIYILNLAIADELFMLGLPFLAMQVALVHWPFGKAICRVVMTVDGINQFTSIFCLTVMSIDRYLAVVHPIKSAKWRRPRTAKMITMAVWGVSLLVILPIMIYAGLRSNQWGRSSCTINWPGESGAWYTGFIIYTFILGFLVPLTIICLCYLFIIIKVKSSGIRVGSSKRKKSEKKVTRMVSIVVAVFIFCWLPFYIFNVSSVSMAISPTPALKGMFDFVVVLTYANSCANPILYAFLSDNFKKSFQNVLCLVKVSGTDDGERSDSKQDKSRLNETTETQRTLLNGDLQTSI

Compound: vasopressin
half-life in brain cerebrospinal fluid (CSF) [1]: ~ 20 mins

Compound: Fluorescein-5(6)-carbonyl-somatostatin-14 [5(6)-FAM-SST]
free diffusion coefficient (D) [2]: (3.00 ± 0.18) × 10^-6 cm^2•s^-1

Compound: hyaluronidase
cell nuclei number or size in cortex compared with control group [3]: no differences

Compound: oxytocin
half-life in brain cerebrospinal fluid (CSF) [1]: ~ 20 mins

FRET response of SST2 CNiFERs [4]: small response
Compound: CC(=O)OCC[N+](C)(C)C [acetylcholine]

Compound: C[C@H](N)C(=O)NCC(=O)N[C@H]1CSSC[C@@H](C(=O)O)NC(=O)[C@H](CO)NC(=O)[C@H]([C@@H](C)O)NC(=O)[C@H](Cc2ccccc2)NC(=O)[C@H]([C@@H](C)O)NC(=O)[C@H](CCCCN)NC(=O)[C@H](Cc2c[nH]c3ccccc23)NC(=O)[C@H](Cc2ccccc2)NC(=O)[C@H](Cc2ccccc2)NC(=O)[C@H](CC(N)=O)NC(=O)[C@H](CCCCN)NC1=O [SST, Somatostatin-14]
half-life in plasma [5]: 1 to 3 min | time to activate SST2 CNiFERs [6]: below 10 s
